Measurements published in publication PMC5897841, “Development of a multipurpose scaffold for the display of peptide loops” (Protein Engineering, Design and Selection, 2017).
pKd: −log10 of the molar value.

Key:
[1] = target: double His-tagged RAD-TPX2_((7–43)) Y10A (Pyrococcus furiosus | human) (UniProt O74036); test: BLI; Octet RED96, Anti-Penta-HIS biosensors loaded with double His-tagged RAD-TPX2 proteins (1 μM), untagged Aurora A wild type 0-500 or 5000 nM as analyte; 50 mM HEPES pH 7.4, 500 mM NaCl, 100 mM Mg(CH3COO)2, 0.5 mM ATP, 0.5 mM TCEP, 0.05% P20; 1:1 model
[2] = target: double His-tagged RAD-TPX2_((7–43)) Y8A (Pyrococcus furiosus | human) (UniProt O74036); test: as above
[3] = target: double His-tagged RAD-TPX2_((7–43)) F16A (Pyrococcus furiosus | human) (UniProt O74036); test: as above
[4] = target: double His-tagged RAD-TPX2_((7–43)) D11A (Pyrococcus furiosus | human) (UniProt O74036); test: as above
[5] = target: double His-tagged RAD-TPX2_((7–43)) W34A (Pyrococcus furiosus | human) (UniProt O74036); test: as above
[6] = target: double His-tagged RAD-TPX2_((7–43)) F35A (Pyrococcus furiosus | human) (UniProt O74036); test: as above
[7] = target: double His-tagged RAD-TPX2_((7–43)), wild-type TPX2 sequence (Pyrococcus furiosus | human) (UniProt O74036); test: as above
[8] = target: double His-tagged RAD-TPX2_((7–43)) F19A (Pyrococcus furiosus | human) (UniProt O74036); test: as above
[9] = target: synthetic linear CK2β_((186–200)) peptide with C-terminal Gly-Cys (human) (UniProt P67870); test: SPR; Biacore T100, CM5, peptides or cRAD display proteins immobilised through their cysteine (240-400 RU), kinase as analyte 2.5 nM-2.5 μM, 25°C, 10 mM HEPES pH 7.4, 500 mM NaCl, 0.05% P20; 1:1 steady-state affinity model; CK2α data analysed at 200 s post-injection
[10] = target: Fluorescein-CK2β_((186–200)) peptide (human) (UniProt P67870); test: fluorescence polarisation; fluorescence anisotropy, direct titration of kinase (CK2α 2 nM-2 μM; Aurora A D274N 2 nM-1.5 μM) into labelled peptide or display protein; 10 mM HEPES pH 7.4, 500 mM NaCl, 1 mM DTT, 0.05% P20; room temperature; 1:1 model
[11] = target: Alexa Fluor 488-labeled cRAD-CK2β_((186–200)) (Pyrococcus furiosus | human) (UniProt O74036); test: as above
CK2α kinase (human) [12] = target: CK2α kinase (human) (UniProt P68400); test: AUC; sedimentation velocity, absorbance at 280 nm, 50 000 rpm, 20°C, 20 mM HEPES pH 7.5, 500 mM NaCl; single proteins and mixtures (5 μM each CK2α and RAD-CK2β; 10 μM each Aurora A D274N and RAD-TPX2)
CK2α kinase (human) [13] = target: CK2α kinase (human) (UniProt P68400); test: SEC; analytical Superdex 75 5/150, 20 mM HEPES pH 7.5, 500 mM NaCl; single proteins and equimolar mixture; fractions checked by SDS-PAGE
CK2α kinase (human) [14] = target: CK2α kinase (human) (UniProt P68400); test: ITC; itc200, 25°C, 10 mM HEPES pH 7.4, 500 mM NaCl, 0.05% P20; 50 μM titrant into 5 μM Aurora A D274N, 100 μM CK2β peptide or RAD-CK2β into 10 μM CK2α; single-site model
[15] = target: Aurora A_(D274N) kinase domain (human) (UniProt O14965); test: as above
[16] = target: Aurora A wild-type kinase domain (untagged) (human); test: fluorescence polarisation; fluorescence anisotropy competition: 10 nM Alexa Fluor 488-TPX2 peptide and 50 nM Aurora A wild type, RAD-TPX2 variants as competitors 195 nM-25 μM, 25°C, HEPES pH 7.4, 0.1 M Mg(CH3COO)2, 100 mM NaCl, 1 mM ATP, 1 mM DTT, 0.01% P20; Ki from the equation of Wang (1995), given as KD in Table II
Chain of Aurora A wild-type kinase domain (untagged) (human) (O14965 133-383): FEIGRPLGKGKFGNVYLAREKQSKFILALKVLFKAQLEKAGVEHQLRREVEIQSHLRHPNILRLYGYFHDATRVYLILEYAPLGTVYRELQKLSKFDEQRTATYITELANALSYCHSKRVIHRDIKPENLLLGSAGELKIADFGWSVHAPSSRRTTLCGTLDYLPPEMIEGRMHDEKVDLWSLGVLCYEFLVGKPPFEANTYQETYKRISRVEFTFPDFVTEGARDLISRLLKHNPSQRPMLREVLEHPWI

Chain of CK2α kinase (human) (P68400 2-329): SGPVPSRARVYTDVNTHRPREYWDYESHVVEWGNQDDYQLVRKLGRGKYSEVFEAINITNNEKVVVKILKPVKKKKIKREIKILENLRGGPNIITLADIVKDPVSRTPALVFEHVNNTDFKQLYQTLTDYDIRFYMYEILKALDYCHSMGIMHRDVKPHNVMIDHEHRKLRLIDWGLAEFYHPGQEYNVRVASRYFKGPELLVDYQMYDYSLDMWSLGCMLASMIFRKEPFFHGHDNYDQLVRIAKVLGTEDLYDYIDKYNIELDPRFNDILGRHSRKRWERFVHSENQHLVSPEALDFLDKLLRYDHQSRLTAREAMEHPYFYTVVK
Chain of CK2α kinase (P68400 2-329): as above
Chain of Aurora A_(D274N) kinase domain (human) (O14965 122-403 D274N): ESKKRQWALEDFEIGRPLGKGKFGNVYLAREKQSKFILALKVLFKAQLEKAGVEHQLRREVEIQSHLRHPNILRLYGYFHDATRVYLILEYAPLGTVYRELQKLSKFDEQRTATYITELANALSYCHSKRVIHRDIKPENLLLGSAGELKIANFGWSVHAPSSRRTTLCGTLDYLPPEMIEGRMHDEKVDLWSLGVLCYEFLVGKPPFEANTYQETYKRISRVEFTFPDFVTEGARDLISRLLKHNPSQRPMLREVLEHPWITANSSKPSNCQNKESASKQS

## Aurora A wild-type kinase domain (untagged) (domain or fragment)
[1]
  pKd: 4.96
[2]
  pKd: 5.55
[3]
  pKd: 6.09
[4]
  pKd: 5.96
[5]
  pKd: 6.08
[6]
  pKd: 5.96
[7]
  pKd: 7.34
[8]
  pKd: 6.06

## CK2α kinase (from UniProt P68400 2-329) (enzyme)
[9]
  pKd: 6.39
[10]
  pKd: 6.46
[11]
  pKd: 6.86

## RAD-CK2β_((186–200)) display protein (as used in AUC and SEC) (from UniProt O74036 108-287; P67870 186-200; O74036 302-349)
CK2α kinase (human) [12]
  stoichiometry N: 1
CK2α kinase (human) [13]
  stoichiometry N: 1

## cRAD-CK2β_((186–200)) display protein (from UniProt O74036 108-287; P67870 186-200; O74036 302-349)
CK2α kinase (human) [14]
  pKd: 6.85

## cRAD-TPX2_((7–43)) display protein (from UniProt O74036 108-287; O74036 302-349)
[15]
  pKd: 6.83

## double His-tagged RAD-TPX2_((7–43)) D11A (from UniProt O74036 108-287; Q9ULW0 7-43; O74036 302-349)
[16]
  pKd: < 5.49

## double His-tagged RAD-TPX2_((7–43)) F16A (from UniProt O74036 108-287; Q9ULW0 7-43; O74036 302-349)
[16]
  pKd: 6.52

## double His-tagged RAD-TPX2_((7–43)) F19A (from UniProt O74036 108-287; Q9ULW0 7-43; O74036 302-349)
[16]
  pKd: 5.75

## double His-tagged RAD-TPX2_((7–43)) F35A (from UniProt O74036 108-287; Q9ULW0 7-43; O74036 302-349)
[16]
  pKd: 5.95

## double His-tagged RAD-TPX2_((7–43)) W34A (from UniProt O74036 108-287; Q9ULW0 7-43; O74036 302-349)
[16]
  pKd: 5.93

## double His-tagged RAD-TPX2_((7–43)) Y8A (from UniProt O74036 108-287; Q9ULW0 7-43; O74036 302-349)
[16]
  pKd: < 5.49

## double His-tagged RAD-TPX2_((7–43)) Y10A (from UniProt O74036 108-287; Q9ULW0 7-43; O74036 302-349)
[16]
  pKd: < 5.49

## double His-tagged RAD-TPX2_((7–43)), wild-type TPX2 sequence (from UniProt O74036 108-287; O74036 302-349)
[16]
  pKd: 8.70

## synthetic linear CK2β_((186–200)) peptide (from UniProt P67870 186-200)
CK2α kinase (human) [14]
  pKd: 6.86
